Changes are numbered by the printed parent chain.
Experiments:
Format in all cases: cell-based
[1] = test system: GFP expression in HEK 293 cells; assay: GFP fluorescence intensity of transfected HEK 293 cells; details: ribozyme in 3′ UTR of EGFP; for reduction (inhibition/suppression) of GFP expression / fold reduction (suppression) of GFP expression: compared to pEGFP-C1 control
Description: Plasmid constructs: oligonucleotides containing wild type or mutant twister ribozyme sequences, either from Nasonia Vitripennis (wasp) or from environmental samples, flanked by BsrGI and MfeI sites, were synthesized (IDT). The synthesized oligonucleotides (“oligos”) were digested with BsrGI and MfeI and cloned into pEGFP-C1 (Clontech) digested with the compatible restriction enzymes. The sequences of the constructed vectors were verified by DNA sequencing (Genewiz).
Transfection and measurement of GFP fluorescence: 3.5×10^4 HEK 293 cells were plated in a 96-well flat bottom plate the day before transfection. Plasmid DNA (500 ng) was added to a tube or a 96-well U-bottom plate. Separately, TransIT-293 reagent (Mirus; 1.4 μl) was added to 50 μl Opti-mem I media (Life Technologies), and allowed to sit for 5 minutes at room temperature (“RT”). Then, 50 μl of this diluted transfection reagent was added to the DNA, mixed, and incubated at RT for 20 min. Finally, 7 μl of this solution was added to a well of cells in a 96-well plate. […] GFP fluorescence intensity was measured by Tecan plate reader, using Excitation wavelength at 484 nm, Emission wavelength at 510 nm and Excitation bandwidth at 5 nm. The GFP fluorescence intensity was expressed as the value generated by GFP constructs subtracted by the value generated by LacZ construct.
Measurement of GFP fluorescence intensity was performed as described in Example 1.

[2] = test system: firefly luciferase expression in HEK 293 cells; assay: Firefly luciferase assay of transfected HEK 293 cells treated with or without guanine or guanosine; details: riboswitch and linker2A downstream of start codon, guanine vs untreated control
Protocol: Firefly luciferase assay of cultured cells: 24 hours after media change, plates were removed from the incubator, equilibrated to RT for several minutes on a lab bench, and then aspirated. Glo-lysis buffer (Promega, 100 μL, RT) was added, and the plates allowed to remain at RT for at least 5 minutes. The well contents were mixed by 50 μL trituration, and 20 μL of each sample was mixed with 20 μL of bright-glo reagent (Promega) that had been diluted to 10% in glo-lysis buffer. 96 wells were spaced on an opaque white 384-well plate. Following a 5-minute incubation at RT, luminescence was measured using a Tecan machine with 500 mSec read time. The luciferase activity was expressed as mean relative light unit (RLU)±S.D. […]
Transfection and aptamer ligand treatment: HEK 293 cells were transfected as described in Example 1. Four hours after transfection, the media was aspirated, and new media with or without 500 μM guanine or 1 mM guanosine (Sigma) was added. Luciferase assay was performed 20 to 24 hours after guanine or guanosine treatment as described in Example 2. The reduction fold was expressed as the quotient of luciferase activity obtained in the absence of aptamer ligand divided by the value obtained in the presence of the aptamer ligand.
Oligos containing either a start codon or coding sequence for the first 10 amino acids of GFP and waspGua16 followed by a linker2A sequence were synthesized (IDT) and cloned into the pLuc vector using the Gibson cloning strategy and cloning kit (NEB). Transfection and luciferase assay of cultured cells were performed as described in Example 3. […]

[3] = test system: firefly luciferase expression in HEK 293 cells; assay: Firefly luciferase assay of HEK 293 cells transfected with twister ribozyme constructs (no ligand); details: twister in 3′ UTR of firefly luciferase, compared to pFLuc control construct
Description: Plasmid constructs: The following primers were used to generate constructs GFP_wasp_No Sac 0HP or GFP_wasp_No Sac 3HP: forward primers NoSac_Fwd (5′ […]) and NoSac3HP_Fwd (5′ […]) and reverse primer MfeI Rev (5′ […]). GFP_wasp-twister vector was used as template and the PCR-amplified DNA fragments were digested with BsrGI and MfeI and cloned into pEGFP-C1 digested with BsrGI and MfeI enzymes. The EGFP gene in pEGFP-C1 was replaced with the firefly luciferase gene to generate the pFLuc vector using Gibson cloning strategy and cloning kit (NEB). The same strategy was used to generate constructs Luc_wasp_No Sac 0HP and Luc_wasp_No Sac 3 HP by replacing the EGFP gene in constructs GFP_wasp_no Sac 0HP and GFP_wasp_no Sac 3HP with the firefly luciferase gene.
Firefly luciferase assay of cultured cells: 24 hours after media change, plates were removed from the incubator, equilibrated to RT for several minutes on a lab bench, and then aspirated. Glo-lysis buffer (Promega, 100 μL, RT) was added, and the plates allowed to remain at RT for at least 5 minutes. […] Following a 5-minute incubation at RT, luminescence was measured using a Tecan machine with 500 mSec read time. The luciferase activity was expressed as mean relative light unit (RLU)±S.D.

B1: es-twister: Twister ribozyme sequence from environmental sample cloned into the 3′ UTR in pEGFP-C1 vector (nucleic acid)
DNA: GTGACCGCCGCCGGGATCACTCTCGGCATGGACGAGCTGTACAAGTAAACCGCGGCAATAAAGCGGTTACAAGCCCGCAAAAATAGCAGAGTAATGTCGCGATAGCGCGGCATTAATGCAGCTTTATTGGCGGCCGCCATACCACATTTGTAGAGGTTTTACTTGCTTTAAAAAACCTCCCACACCTCCCCCTGAACCTGAAACATAAAATGAATGC
modifications: misc_feature 1..217 es-twister in pEGFPC1
[1]
  effect on GFP expression (in words): significantly reduced target gene expression
  reduction (inhibition/suppression) of GFP expression: about 50%

B2: 10aa_waspGua16: waspGua16 and linker2A inserted downstream of the coding sequence for the first 10 amino acids of GFP, in pLuc (nucleic acid)
DNA: ATGGTGAGCAAGGGCGAGGAGCTGTTCACCACGCCTTGTAATGCGGCATATAATCGCGTGGATATGGCACGCAAGTTTCTACCGGGCACCGTAAATGTCCGACTATTCGGTCTCAAGCCCGATAAACGCAGAGAGCAAGGCGAAGGCGGATCTTCAGGTAGTGGCGAGGGCAGAGGAAGTCTTCTAACATGCGGTGACGTGGAGGAGAATCCCGGCCCCGAAGACGCCAAAAACATAAAGAAAGGCCCGGCGCCA
modifications: misc_feature 1..255 10aa_wtWaspGua16 in pLuc
[2]
  reduction of luciferase gene expression in the presence of guanine: 68%

B3: GFP_wasp_no Sac 0HP: GFP wasp-twister construct with SacII sequence at 5′ end of twister deleted (nucleic acid)
DNA: GTGACCGCCGCCGGGATCACTCTCGGCATGGACGAGCTGTACAAGTAAACTTGTAATGCGGCCGTGTAAATAATTTACACGTCGGTCTCAAGCCCGATAAACGCAGAGAGCAAGGCGGCCGCCATACCACATTTGTAGAGGTTTTACTTGCTTTAAAAAACCTCCCACACCTCCCCCTGAACCTGAAACATAAAATGAATGC
modifications: misc_feature 1..202 wasp_no Sac 0HP in pEGFP-C1
[1]
  fold reduction (suppression) of GFP expression: 68 fold

B4: wasp-twister: Twister ribozyme sequence from N. vitripennis cloned into the 3′ UTR in pEGFP-C1 vector (nucleic acid)
DNA: GTGACCGCCGCCGGGATCACTCTCGGCATGGACGAGCTGTACAAGTAAACCGCGGCTTGTAATGCGGCCGTGTAAATAATTTACACGTCGGTCTCAAGCCCGATAAACGCAGAGAGCAAGGCGGCCGCCATACCACATTTGTAGAGGTTTTACTTGCTTTAAAAAACCTCCCACACCTCCCCCTGAACCTGAAACATAAAATGAATGC
modifications: misc_feature 1..208 wasp-twister in pEGFP-C1
[1]
  effect on GFP expression (in words): reduced expression of GFP
  fold reduction (suppression) of GFP expression: 36 fold
  reduction (inhibition/suppression) of GFP expression: 97%
[1]; listed as GFP-twister
  fold reduction (suppression) of GFP expression: 37 fold
[1]; listed as Wasp-twister
  fold reduction (suppression) of GFP expression: ~36 fold
  reduction (inhibition/suppression) of GFP expression: approximately 97%
[1]; listed as wild type twister ribozyme
  fold reduction (suppression) of GFP expression: 44 fold

B5: wasp-twister Mutant: Cleavage-incapable mutant wasp twister, A6 replaced with G, in 3′ UTR of pEGFP-C1 (nucleic acid)
DNA: B4 DNA with A61G
modifications: misc_feature 1..208 wasp-twister-mut in pEGFP-C1
notes: Cleavage-incapable mutant wasp twister, A6 replaced with G, in 3′ UTR of pEGFP-C1
[1]
  effect on GFP expression (in words): did not cause a reduction in GFP expression
[1]; listed as A6G mutation
  effect on GFP expression (in words): completely abolished the suppression in GFP expression

B6: Luc_wasp_No Sac 3HP: Firefly luciferase construct with wasp twister with 3 bp stem (3HP) at P1 stem in 3′ UTR (nucleic acid)
DNA: TCAGAGAGATCCTCATAAAGGCCAAGAAGGGCGGAAAGATCGCCGTGTAAACGCCTTGTAATGCGGCCGTGTAAATAATTTACACGTCGGTCTCAAGCCCGATAAACGCAGAGAGCAAGGCGGCCGCCATACCACATTTGTAGAGGTTTTACTTGCTTTAAAAAACCTCCCACACCTCCCCCTGAACCTGAAACATAAAATGAATGC
modifications: misc_feature 1..207 wasp_No Sac 3HP in pLuc
notes: Firefly luciferase construct with wasp twister with 3 bp stem (3HP) at P1 stem in 3′ UTR
[3]
  fold reduction of luciferase activity: 254 fold

B7: Luc_wasp_No Sac 0HP: Firefly luciferase construct with wasp twister without SacII sequence in 3′ UTR (nucleic acid)
DNA: TCAGAGAGATCCTCATAAAGGCCAAGAAGGGCGGAAAGATCGCCGTGTAAACTTGTAATGCGGCCGTGTAAATAATTTACACGTCGGTCTCAAGCCCGATAAACGCAGAGAGCAAGGCGGCCGCCATACCACATTTGTAGAGGTTTTACTTGCTTTAAAAAACCTCCCACACCTCCCCCTGAACCTGAAACATAAAATGAATG
modifications: misc_feature 1..203 wasp_No Sac 0HP in pLuc
[3]
  fold reduction of luciferase activity: 101 fold

B8: GFP_wasp_no Sac 3HP: GFP wasp-twister construct with SacII site replaced by CGC creating 3 base pair stem (3HP) at P1 stem (nucleic acid)
DNA: GTGACCGCCGCCGGGATCACTCTCGGCATGGACGAGCTGTACAAGTAAACGCCTTGTAATGCGGCCGTGTAAATAATTTACACGTCGGTCTCAAGCCCGATAAACGCAGAGAGCAAGGCGGCCGCCATACCACATTTGTAGAGGTTTTACTTGCTTTAAAAAACCTCCCACACCTCCCCCTGAACCTGAAACATAAAATGAATGC
modifications: misc_feature 1..205 wasp_no Sac 3HP in pEGFP-C1
notes: GFP wasp-twister construct with SacII site replaced by CGC creating 3 base pair stem (3HP) at P1 stem
[1]
  fold reduction (suppression) of GFP expression: 104 fold

B9: ATG_waspGua16: waspGua16 and linker2A inserted downstream of ATG and upstream of remaining luciferase coding sequence (nucleic acid)
DNA: ATGACGCCTTGTAATGCGGCATATAATCGCGTGGATATGGCACGCAAGTTTCTACCGGGCACCGTAAATGTCCGACTATTCGGTCTCAAGCCCGATAAACGCAGAGAGCAAGGCGAAGGCGGATCTTCAGGTAGTGGCGAGGGCAGAGGAAGTCTTCTAACATGCGGTGACGTGGAGGAGAATCCCGGCCCCGAAGACGCCAAAAACATAAAGAAAGGCCCGGCGCCA
modifications: misc_feature 1..228 ATG_wtWaspGua16 in pLuc
[2]
  reduction of luciferase gene expression in the presence of guanine: 68%

Reference: patent US12359199B2, “Regulation of gene expression via aptamer-mediated control of self-cleaving ribozymes” (MEIRAGTX UK II LIMITED, priority 2016, dated 2025)
